In US7067474B1, “Agents for treating human illnesses based on β-catenin, and the production and use thereof” (Max-Delbruck-Centrum fur Molekulare Medizin, priority 1998, dated 2006):
Residue numbers refer to the chain shown, from its start.

Key:
Experiment in all cases: yeast 2-hybrid; - means 60-100% of the wild type interaction
[1] = target: T1, human β-catenin (Leu218-Leu781) mutant Lys 435 to alanine, Gal-4 activation domain fusion (human, UniProt P35222 218-781)
T1 sequence: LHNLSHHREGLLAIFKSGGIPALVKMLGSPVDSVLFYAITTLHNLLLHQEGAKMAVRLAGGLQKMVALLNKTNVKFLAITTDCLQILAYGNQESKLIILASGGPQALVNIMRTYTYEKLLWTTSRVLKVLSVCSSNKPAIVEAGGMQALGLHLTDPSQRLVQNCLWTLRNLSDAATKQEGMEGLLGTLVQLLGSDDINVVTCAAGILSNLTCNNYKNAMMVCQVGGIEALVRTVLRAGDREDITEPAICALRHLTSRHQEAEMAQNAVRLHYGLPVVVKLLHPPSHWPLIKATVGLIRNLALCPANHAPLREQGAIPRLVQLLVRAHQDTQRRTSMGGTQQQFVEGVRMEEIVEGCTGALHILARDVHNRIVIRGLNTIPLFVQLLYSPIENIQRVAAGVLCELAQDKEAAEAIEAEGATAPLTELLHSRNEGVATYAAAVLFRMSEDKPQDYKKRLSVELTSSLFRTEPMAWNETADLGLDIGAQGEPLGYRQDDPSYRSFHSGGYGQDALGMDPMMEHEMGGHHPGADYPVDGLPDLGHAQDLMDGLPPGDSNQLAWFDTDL
Protocol: (§1) 4. Preparation and testing of mutants of β-catenin modulating the interaction with LEF-1, APC, conductin or E-cadherin The mutagenesis of β-catenin in the armadillo repeats 3–8 was carried out by means of the "mutagenesis kit" of the company Clontech according to the producer's record and the mutants were checked by sequencing (FIG. 5). In all mutants the original amino acid was substituted by alanine. For analyzing the interactions the cDNA of human β-catenin (armadillo repeat 3 up to the C-terminal end of the protein) coding for the amino acids Leu218–Leu7 µl or its mutants was cloned into the fusion vector for the activation domain of Gal-4 (pGAD424, Clontech). The cDNA for the binding domains of the interaction partners was cloned into the Lex-A fusion vector BTM 116. To this end, the cDNA of LEF-1 for the amino acids 1–99, conductin for the amino acids Ala342–ARG465; of human APC for the amino acids His1012–Glu1215 (APC 15 amino acid repeats) and for the amino acids Ser1259Asp 1400 (APC 20 amino acid repeats) and E-cadherin for the amino acids Gin773–Asp884 (cytoplasmatic domain) were amplified with the respective primers PCR. The interaction of the Lex-A hybrids with β-catenin and its mutants was quantified by means of the β-galactosidase reporter activity in the yeast 2-hybrid system (report: "Matchmaker". Clontech) (Tab. 2 and FIG. 6).

[2] = target: T2, human β-catenin (Leu218-Leu781) mutant Trp 338 to alanine, Gal-4 activation domain fusion (human, UniProt P35222 218-781)
T2 sequence: T1 sequence with W121A, A218K
Protocol: as §1

[3] = target: T3, human β-catenin (Leu218-Leu781) mutant Arg 274 to alanine, Gal-4 activation domain fusion (human, UniProt P35222 218-781)
T3 sequence: T1 sequence with R57A, A218K
Protocol: as §1

Measured: binding result

B1: LEF-1 amino acids 1-99 fused to Lex-A (vector BTM 116) (other, UniProt P0A7C2 1-202, looked up)
chain: MKALTARQQEVFDLIRDHISQTGMPPTRAEIAQRLGFRSPNAAEEHLKALARKGVIEIVSGASRGIRLLQEEEEGLPLVGRVAAGEPLLAQQHIEGHYQVDPSLFKPNADFLLRVSGMSMKDIGIMDGDLLAVHKTQDVRNGQVVVARIDDEVTVKRLKKQGNKVELLPENSEFKPIVVDLRQQSFTIEGLAVGVIRNGDWLMPQLSGGGGGGDPELCATDEMIPFKDEGDPQKEKIFAEISHPEEEGDLADIKSSLVNESEIIPASNGHEVVRQAPSSQEPYHDKAREHPDEGKHPDGGL
notes: Order of the fusion follows the vector; also called LEF-1/TCF-4
binds: all assays above
